Here are results for 43 sequences from the supplement of paper PMC9428881.

The nature of the data set: background-corrected fluorescence of 3'-dye-labeled ssDNA relative to brightest sequence (3'-GCGCG) (fraction); higher = brighter dye fluorescence (less quenching). Put shortly: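 Fluorescence values are background-corrected using unlabeled oligos and expressed relative to the brightest sequence. The single-stranded DNA was made on glass slides by light-directed phosphoramidite synthesis, each of 1024 permuted pentamers ending beside a 3' Cy3 or Cy5 dye. Scans at 532 or 635 nm were taken before and after overnight ethylenediamine/ethanol deprotection, and each value averages 10 features per array and at least 3 syntheses.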

± gives the standard error.

“TTTTTTGATGAGCATCAGCATTTTTTTTTTTTTTTCCTGT [TGTCC]” displayed a background-corrected fluorescence (dye: Cy3 (3' terminal)) of 0.584 ± 0.0059 and a background-corrected fluorescence (dye: Cy5 (3' terminal)) of 0.459 ± 0.038.
In the case of “TTTTTTGATGAGCATCATCATTTTTTTTTTTTTTTCCTGG [GGTCC]”, the background-corrected fluorescence is, setting by setting: (dye: Cy3 (3' terminal)) 0.557 ± 0.023; (dye: Cy5 (3' terminal)) 0.47 ± 0.054.
For “TTTTTTGATGAGCATCATGATTTTTTTTTTTTTTTCCTGC [CGTCC]” the same measures were 0.485 ± 0.028 and 0.394 ± 0.032.
For the sequence “TTTTTTGATGAGCATCATGCTTTTTTTTTTTTTTTCCTGA [AGTCC]”, the background-corrected fluorescence came to 0.592 ± 0.034 (dye: Cy3 (3' terminal)) and 0.499 ± 0.086 (dye: Cy5 (3' terminal)).
Regarding “TTTTTTGATGAGCATGAGCATTTTTTTTTTTTTTTCCTCT [TCTCC]”, the background-corrected fluorescence (dye: Cy3 (3' terminal)) is 0.431 ± 0.012 and the background-corrected fluorescence (dye: Cy5 (3' terminal)) worked out at 0.312 ± 0.026.
In the case of “TTTTTTGATGAGCATGATCATTTTTTTTTTTTTTTCCTCG [GCTCC]”, the background-corrected fluorescence is, setting by setting: (dye: Cy3 (3' terminal)) 0.471 ± 0.02; (dye: Cy5 (3' terminal)) 0.393 ± 0.057.
On the same counts, the results for “TTTTTTGATGAGCATGATGATTTTTTTTTTTTTTTCCTCC” are 0.342 ± 0.03 and 0.273 ± 0.021.
In the case of “TTTTTTGATGAGCATGATGCTTTTTTTTTTTTTTTCCTCA [ACTCC]”, the background-corrected fluorescence worked out at 0.493 ± 0.0056 (dye: Cy3 (3' terminal)) and 0.377 ± 0.042 (dye: Cy5 (3' terminal)).
For “TTTTTTGATGAGCATGCGCATTTTTTTTTTTTTTTCCTAT [TATCC]”, the background-corrected fluorescence by setting is: (dye: Cy3 (3' terminal)) 0.486 ± 0.018; (dye: Cy5 (3' terminal)) 0.361 ± 0.028.
“TTTTTTGATGAGCATGCTCATTTTTTTTTTTTTTTCCTAG [GATCC]” gave a background-corrected fluorescence (dye: Cy3 (3' terminal)) of 0.532 ± 0.019 and a background-corrected fluorescence (dye: Cy5 (3' terminal)) of 0.414 ± 0.023.
Turning to “TTTTTTGATGAGCATGCTGATTTTTTTTTTTTTTTCCTAC [CATCC]”, the background-corrected fluorescence reads like this: (dye: Cy3 (3' terminal)) 0.45 ± 0.02; (dye: Cy5 (3' terminal)) 0.306 ± 0.042.
On to “TTTTTTGATGAGCATGCTGCTTTTTTTTTTTTTTTCCTAA [AATCC]”, for which the background-corrected fluorescence (dye: Cy3 (3' terminal)) was 0.538 ± 0.015 and the background-corrected fluorescence (dye: Cy5 (3' terminal)) is 0.432 ± 0.031.
For “TTTTTTGATGATCAGCAGCATTTTTTTTTTTTTTTCCGTT [TTGCC]”, the background-corrected fluorescence (dye: Cy3 (3' terminal)) was determined as 0.542 ± 0.036 and the background-corrected fluorescence (dye: Cy5 (3' terminal)) is 0.446 ± 0.059.
With “TTTTTTGATGATCAGCATCATTTTTTTTTTTTTTTCCGTG [GTGCC]”, the background-corrected fluorescence by setting is: (dye: Cy3 (3' terminal)) 0.533 ± 0.0058; (dye: Cy5 (3' terminal)) 0.435 ± 0.029.
For the sequence “TTTTTTGATGATCAGCATGATTTTTTTTTTTTTTTCCGTC [CTGCC]”, the background-corrected fluorescence (dye: Cy3 (3' terminal)) was 0.442 ± 0.019 and the background-corrected fluorescence (dye: Cy5 (3' terminal)) turned out to be 0.345 ± 0.018.
Consider “TTTTTTGATGATCAGCATGCTTTTTTTTTTTTTTTCCGTA [ATGCC]”, for which the background-corrected fluorescence reads like this: (dye: Cy3 (3' terminal)) 0.546 ± 0.025; (dye: Cy5 (3' terminal)) 0.436 ± 0.028.
For “TTTTTTGATGATCATCAGCATTTTTTTTTTTTTTTCCGGT [TGGCC]”, the background-corrected fluorescence turned out to be 0.729 ± 0.028 (dye: Cy3 (3' terminal)) and 0.624 ± 0.064 (dye: Cy5 (3' terminal)).
On to “TTTTTTGATGATCATCATCATTTTTTTTTTTTTTTCCGGG [GGGCC]”, for which the background-corrected fluorescence is, setting by setting: (dye: Cy3 (3' terminal)) 0.731 ± 0.012; (dye: Cy5 (3' terminal)) 0.655 ± 0.076.
“TTTTTTGATGATCATCATGATTTTTTTTTTTTTTTCCGGC [CGGCC]” showed a background-corrected fluorescence (dye: Cy3 (3' terminal)) of 0.623 ± 0.025 and a background-corrected fluorescence (dye: Cy5 (3' terminal)) of 0.511 ± 0.041.
In turn, “TTTTTTGATGATCATCATGCTTTTTTTTTTTTTTTCCGGA [AGGCC]” registered a background-corrected fluorescence (dye: Cy3 (3' terminal)) of 0.773 ± 0.024 and a background-corrected fluorescence (dye: Cy5 (3' terminal)) of 0.714 ± 0.045.
With “TTTTTTGATGATCATGAGCATTTTTTTTTTTTTTTCCGCT [TCGCC]”, the background-corrected fluorescence came to 0.579 ± 0.035 (dye: Cy3 (3' terminal)) and 0.428 ± 0.034 (dye: Cy5 (3' terminal)).
On the same counts, the results for “TTTTTTGATGATCATGATCATTTTTTTTTTTTTTTCCGCG [GCGCC]” are 0.961 ± 0.026 and 0.944 ± 0.034.
The sequence “TTTTTTGATGATCATGATGATTTTTTTTTTTTTTTCCGCC” returned a background-corrected fluorescence (dye: Cy3 (3' terminal)) of 0.445 ± 0.024 and a background-corrected fluorescence (dye: Cy5 (3' terminal)) of 0.33 ± 0.022.
On to “TTTTTTGATGATCATGATGCTTTTTTTTTTTTTTTCCGCA [ACGCC]”, for which the background-corrected fluorescence is 0.539 ± 0.034 (dye: Cy3 (3' terminal)) and 0.475 ± 0.024 (dye: Cy5 (3' terminal)).
As for “TTTTTTGATGATCATGCGCATTTTTTTTTTTTTTTCCGAT [TAGCC]”, the background-corrected fluorescence turned out to be 0.603 ± 0.04 (dye: Cy3 (3' terminal)) and 0.435 ± 0.022 (dye: Cy5 (3' terminal)).
Turning to “TTTTTTGATGATCATGCTCATTTTTTTTTTTTTTTCCGAG [GAGCC]”, the background-corrected fluorescence runs as follows: (dye: Cy3 (3' terminal)) 0.593 ± 0.015; (dye: Cy5 (3' terminal)) 0.501 ± 0.072.
Turning to “TTTTTTGATGATCATGCTGATTTTTTTTTTTTTTTCCGAC [CAGCC]”, the background-corrected fluorescence by setting is: (dye: Cy3 (3' terminal)) 0.464 ± 0.024; (dye: Cy5 (3' terminal)) 0.374 ± 0.068.
Turning to “TTTTTTGATGATCATGCTGCTTTTTTTTTTTTTTTCCGAA [AAGCC]”, the background-corrected fluorescence is, setting by setting: (dye: Cy3 (3' terminal)) 0.647 ± 0.047; (dye: Cy5 (3' terminal)) 0.49 ± 0.031.
For the sequence “TTTTTTGATGATGAGCAGCATTTTTTTTTTTTTTTCCCTT”, the background-corrected fluorescence runs as follows: (dye: Cy3 (3' terminal)) 0.452 ± 0.011; (dye: Cy5 (3' terminal)) 0.359 ± 0.025.
For the sequence “TTTTTTGATGATGAGCATCATTTTTTTTTTTTTTTCCCTG [GTCCC]”, the background-corrected fluorescence reads like this: (dye: Cy3 (3' terminal)) 0.528 ± 0.048; (dye: Cy5 (3' terminal)) 0.364 ± 0.024.
For “TTTTTTGATGATGAGCATGATTTTTTTTTTTTTTTCCCTC [CTCCC]” the same measures were 0.346 ± 0.012 and 0.26 ± 0.019.
For “TTTTTTGATGATGAGCATGCTTTTTTTTTTTTTTTCCCTA [ATCCC]” the same measures were 0.458 ± 0.025 and 0.35 ± 0.019.
For “TTTTTTGATGATGATCAGCATTTTTTTTTTTTTTTCCCGT [TGCCC]” the same measures were 0.585 ± 0.034 and 0.48 ± 0.021.
Regarding “TTTTTTGATGATGATCATCATTTTTTTTTTTTTTTCCCGG [GGCCC]”, the background-corrected fluorescence amounted to 0.625 ± 0.027 (dye: Cy3 (3' terminal)) and 0.562 ± 0.072 (dye: Cy5 (3' terminal)).
On to “TTTTTTGATGATGATCATGATTTTTTTTTTTTTTTCCCGC [CGCCC]”, for which the background-corrected fluorescence by setting is: (dye: Cy3 (3' terminal)) 0.51 ± 0.013; (dye: Cy5 (3' terminal)) 0.419 ± 0.034.
“TTTTTTGATGATGATCATGCTTTTTTTTTTTTTTTCCCGA [AGCCC]” yielded a background-corrected fluorescence (dye: Cy3 (3' terminal)) of 0.629 ± 0.051 and a background-corrected fluorescence (dye: Cy5 (3' terminal)) of 0.554 ± 0.034.
In the case of “TTTTTTGATGATGATGAGCATTTTTTTTTTTTTTTCCCCT”, the background-corrected fluorescence by setting is: (dye: Cy3 (3' terminal)) 0.438 ± 0.024; (dye: Cy5 (3' terminal)) 0.312 ± 0.016.
“TTTTTTGATGATGATGATCATTTTTTTTTTTTTTTCCCCG [GCCCC]”: the background-corrected fluorescence by setting is: (dye: Cy3 (3' terminal)) 0.471 ± 0.035; (dye: Cy5 (3' terminal)) 0.377 ± 0.026.
As for “TTTTTTGATGATGATGATGATTTTTTTTTTTTTTTCCCCC”, the background-corrected fluorescence runs as follows: (dye: Cy3 (3' terminal)) 0.369 ± 0.018; (dye: Cy5 (3' terminal)) 0.251 ± 0.018.
“TTTTTTGATGATGATGATGCTTTTTTTTTTTTTTTCCCCA [ACCCC]”: the background-corrected fluorescence reads like this: (dye: Cy3 (3' terminal)) 0.423 ± 0.023; (dye: Cy5 (3' terminal)) 0.352 ± 0.021.
On the same counts, the results for “TTTTTTGATGATGATGCGCATTTTTTTTTTTTTTTCCCAT [TACCC]” are 0.49 ± 0.03 and 0.356 ± 0.015.
On the same counts, the results for “TTTTTTGATGATGATGCTCATTTTTTTTTTTTTTTCCCAG [GACCC]” are 0.504 ± 0.0073 and 0.374 ± 0.025.
On to “TTTTTTGATGATGATGCTGATTTTTTTTTTTTTTTCCCAC [CACCC]”, for which the background-corrected fluorescence reads like this: (dye: Cy3 (3' terminal)) 0.373 ± 0.022; (dye: Cy5 (3' terminal)) 0.294 ± 0.044.
